Laboratory results from US5997865.

Target: c-kit (mouse) (UniProt P05532)

Substance: kit ligand
- expansion in cell number after 7 days of coculture on 7-4 stroma (AA4+ Kit+ Flk-2+ cells) (not stated (cell number, Table 2)): 210
